Key:
[1] = target: 1PGE-THIVC SOSIP.664 gp140 Env trimer (HIV-1 clade C); test: negative-stain EM; SEC-purified trimers at 0.01-0.03 mg/ml on carbon-coated grids, 2% uranyl formate, 2D class averages
[2] = target: PGT145; test: D-7324 capture ELISA; conditions: value read at the highest antibody concentration, PGT145 10 µg/ml; parent: est. 1.3; read off a plot
[3] = target: CD4-IgG2 (UniProt P01730); test: D-7324 capture ELISA; conditions: value read at the highest concentration, CD4-IgG2 10 µg/ml; parent: est. 2.5; read off a plot
[4] = target: VRC01; test: D-7324 capture ELISA; conditions: value read at the highest antibody concentration, VRC01 10 µg/ml; parent: est. 2.8; read off a plot

Substance | stoichiometry N [1] | response [2] [A450] | response [3] [A450] | response [4] [A450]
1PGE-THIVC SOSIP.664 gp140 Env trimer (complex) | 3 |  |  | 
1PGE-THIVC SOSIP.664 gp140 Env trimer N279E |  | 1.3 | 0.98 | 0.93

Reference: article PMC8055034
